Residue numbers refer to the chain shown, from its start. Values joined by “and” are separate entries in the source; they are usually repeats but may differ in a detail not shown here. Identical values can stand only once. Like-named read-outs stand apart in the source and are kept apart here.
Key:
Fc-0447 1-60 (human) = Fc-0447 1-60 (human) (UniProt Q9UBP8); assay: ELISA, Fab plate on Fc-0447 1-60
[1] = biological target: T1, recombinant Fc-KAAG1 fusion protein (full-length human KAAG1 fused to human Fc, from pYD5-0447 in 293E cells) (human, UniProt Q9UBP8 1-84, biotinylated with NHS-biotin for the ELISA (sites not given)); assay: ELISA, 1 ng Fab/well on Fc-KAAG1 [D00012 Figure 7C]
T1 construct: Order of parts follows the printed name Fc-KAAG1; also called recombinant KAAG1; not shown: its limits and the linker to KAAG
T1 sequence: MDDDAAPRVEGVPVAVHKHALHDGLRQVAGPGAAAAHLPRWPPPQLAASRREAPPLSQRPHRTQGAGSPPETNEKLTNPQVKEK
Description: (§1) The 96-well master plate of monoclonal preparations contained different concentrations of purified anti-KAAG1 Fabs in each well. A second stock master plate was prepared by diluting the Fabs to a final concentration of 10 μg/ml from which all subsequent dilutions were performed for ELISA measurements. To carry out the binding of Fc-KAAG1 to the monoclonal preparations, the Fc-KAAG1 was biotinylated with NHS-biotin (Pierce, Rockford, Ill.) and 10 ng/well was coated in a streptavidin 96-well plate. One nanogram of each Fab monoclonal preparation was added to each well and incubated at room temperature for 30 minutes. Bound antibody was detected with HRP-conjugated mouse anti-kappa light chain antibody in the presence of TMB liquid substrate (Sigma-Aldrich Canada Ltd., Oakville, ON) and readings were conducted at 450 nm in microtiter plate reader.

[2] = biological target: T2, Fc-fused truncated mutant of KAAG1 spanning amino acids 1-35 (human); assay: ELISA, Fab plate on Fc-0447 1-35
T2 construct: Made and purified like the full-length Fc-KAAG1; also called KAAG1 1-35
T2 chain: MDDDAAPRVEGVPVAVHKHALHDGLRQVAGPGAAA

[3] = biological target: T3, monomeric recombinant KAAG1 (human, UniProt Q9UBP8 1-84, limits assumed); assay: SPR (Biacore), antibody captured on anti-human Fc, monomeric KAAG1 injected, 1:1 model
T3 construct: Analyte of the Biacore experiment
T3 sequence: T1 sequence
Description: (§2) More precise measurements were conducted using Surface Plasmon Resonance (SPR) in a Biacore instrument. Kinetic analysis was used to compare the affinity of the chimeric 3D3 with the h3D3 as well as with hybrid antibodies encompassing different permutations of the light and heavy chains (see FIG. 18B). Briefly, anti-human Fc was immobilized on the Biacore sensor chip and chimeric or h3D3 was captured on the chip. Different concentrations of monomeric recombinant KAAG1 were injected and the data were globally fitted to a simple 1:1 model to determine the kinetic parameters of the interaction.

[4] = biological target: T3, monomeric recombinant KAAG1; assay: SPR (Biacore); antibody captured on anti-human Fc, monomeric KAAG1 injected, 1:1 fit, average KD; chimeric light chain, humanized heavy chain (CH)
Description: as §2

[5] = biological target: T3, monomeric recombinant KAAG1; assay: SPR (Biacore); antibody captured on anti-human Fc, monomeric KAAG1 injected, 1:1 fit, average KD; humanized light and heavy chains (HH)
Description: as §2

[6] = biological target: T1, recombinant Fc-KAAG1 fusion protein …; assay: ELISA on recombinant Fc-KAAG1
Description: as §1
Expression of human IgG1s in 293E cells—The expression vectors prepared above that encoded the light and heavy chain immunoglobulins were expressed in 293E cells using the transient transfection system (Durocher et al., 2002). The methods used for co-transfecting the light and heavy chain expression vectors were described in Example 5. […] The ability of the chimeric anti-KAAG1 monoclonal antibodies to bind to recombinant Fc-KAAG1 was measured in the ELISA and compared with the original mouse Fabs. The method was described in Example 5. […]

[7] = biological target: T3, monomeric recombinant KAAG1; assay: SPR (Biacore); antibody captured on anti-human Fc, monomeric KAAG1 injected, 1:1 fit, average KD; humanized light chain, chimeric heavy chain (HC)
Description: as §2

[8] = biological target: T1, recombinant Fc-KAAG1 fusion protein …; assay: ELISA on recombinant Fc-KAAG1; remark: listed apart in the source
[9] = biological target: T3, monomeric recombinant KAAG1; assay: SPR (Biacore); antibody captured on anti-human Fc, monomeric KAAG1 injected, 1:1 fit, average KD; chimeric 3D3 tabulated as m3D3 in FIG. 18B
Description: as §2

[10] = biological target: T3, monomeric recombinant KAAG1; assay: SPR (Biacore); antibody captured on anti-human Fc, monomeric KAAG1 injected, 1:1 fit, average KD; chimeric light + chimeric heavy chain co-expressed, 'CC' of the permutation set
Description: as §2

B1: 3C4 mouse anti-KAAG1 Fab (Fab, V domains shown)
VH: EVQLQESGPDLVKPSQSLSLTCTVTGFSITSGYGWHWIRQFPGNKLEWMGYINYDGHNDYNPSLKSRISITQDTSKNQFFLQLNSVTTEDTATYYCASSYDGLFAYWGQGTLVTVSA
VL: DIVMSQSPSSMYASLGERVTITCKASQDIHNFLNWFQQKPGKSPKTLIFRANRLVDGVPSRFSGSGSGQDYSLTISSLEFEDLGIYSCLQYDEIPLTFGAGTKLELR
notes: Recombinant mouse Fab made in E. coli; also called 3C4 Fab
B1 was tested, and the OD450 (Fc-0447 1-60 (human)) was 0.57 OD450 and the OD450 [1] was 0.25 OD450.

B2: anti-KAAG1 Fab of well C2 (plate from Omniclonal library #3) (Fab, V domains shown)
VH: B1 VH with E1D, N53S, Y54F, D55N, H57D, N58S, D59N, Q72R, T88S, T111P
VL: DIQMTQSPSSMYASLGERVTLTCKASQDIHNYLNWFQQKPGKSPKTLIHRANRLVAGVPSRFSGSGSGQDYSLTISSLEYEDLGIYYCLQYDAFPLTFGAGTKLELK
B2 was tested, and the OD450 [2] was 1.97 OD450 and the OD450 [1] was 0.32 OD450.

B3: anti-KAAG1 Fab of well D1 (plate from Omniclonal library #3) (Fab, V domains shown)
VH: B1 VH with N44D, N53S, Y54F, D55N, H57D, N58Y, D59N, Q72R, N84S
VL: B2 VL with Q3K, L21I, N31T, K45E, H49Y, A56D, L83M, A93E
In the case of B3, the OD450 [2] is reported as 1.21 OD450 and the OD450 [1] is reported as 0.15 OD450.

B4: 3D3 hybrid antibody: chimeric light chain expressed with the humanized heavy chain (antibody, human IgG1, V domains shown)
VH: EVQLVQSGAEVKKPGASVKVSCKASGYIFTDYEIHWVRQAPGQGLEWMGVIDPETGNTAFNQKFKGRVTITADTSTSTAYMELSSLTSEDTAVYYCMGYSDYWGQGTLVTVSS
VL: DIVMTQSPSSLAVSIGQKVTMNCKSSQSLLNSNFQKNFLAWYQQKPGQSPKLLIYFASTRESSIPDRFIGSGSGTDFTLTISSVQAEDLADYFCQQHYSTPLTFGAGTKLELKA
With B4 the Ka [3] was 1.98e+09 M⁻¹, the koff [3] was 0.00111 s⁻¹ and the kon [3] was 2.2e+06 M⁻¹ s⁻¹. It also gave a Kd [4] of 0.505 nM.

B5: humanized 3D3 anti-KAAG1 antibody (human IgG1) (antibody, V domains shown)
VH: B4 VH
VL: DIVMTQSPDSLAVSLGERATINCKSSQSLLNSNFQKNFLAWYQQKPGQPPKLLIYFASTRESSVPDRFSGSGSGTDFTLTISSLQAEDVAVYYCQQHYSTPLTFGQGTKLEIKR
notes: The residues before them (leader) are left out on that ground; also called h3D3; HH
Work on B5 yielded a Ka [3] of 2.28e+09 M⁻¹, a koff [3] of 0.00111 s⁻¹ and a kon [3] of 2.53e+06 M⁻¹ s⁻¹. For the same binder, the Kd [5] was 0.439 nM.

B6: anti-KAAG1 Fab of well E10 (plate from Omniclonal library #3) (Fab, V domains shown)
VH: EVQLQQSGPELVKPGASVKISCKASGDTFTDYYMNWVKQSHGKSLEWIGDINPNYGGITYNQKFKGKATLTVDTSSSTAYMELRGLTSEDSAVYYCQAYYRNSDYWGQGTTLTVSS
VL: DIVMTQAAPSVPVTPGESVSISCRSSKSLLHSNGNTYLYWFLQRPGQSPQLLIYRMSNLASGVPDRFSGSGSGTAFTLRISRVEAEDVGVYYCMQHLEYPYTFGGGTKLEIK
With B6 the OD450 (Fc-0447 1-60 (human)) was -0.02 OD450, the OD450 [2] was 0.33 OD450 and the OD450 [1] was 0.02 OD450.

B7: 3G10 mouse anti-KAAG1 Fab (Fab, V domains shown)
VH: EIQLQQSGPELVKPGASVKISCKASGYTFTDNYMNWVKQSHGKSLEWIGDINPYYGTTTYNQKFKGKATLTVDKSSRTAYMELRGLTSEDSAVYYCARDDWFDYWGQGTLVTVSA
VL: DVLMTQTPRSLSVSLGDQASISCRSSQSLLHSNGNTYLEWYLQKPGQPPKVLIYKVSNRFSGVPDRFSGSGSGTDFTLKISGVEAEDLGVYYCFQGSHVPLTFGAGTKLELK
notes: Recombinant mouse Fab made in E. coli; also called 3G10 Fab
B7 showed an OD450 [1] of 2.78 OD450.

B8: 3D3 mouse anti-KAAG1 Fab (Fab, V domains shown)
VH: EVQLQQSVAELVRPGASVTLSCKASGYIFTDYEIHWVKQTPVHGLEWIGVIDPETGNTAFNQKFKGKATLTADISSSTAYMELSSLTSEDSAVYYCMGYSDYWGQGTTLTVSS
VL: DIVMTQSPSSLAVSIGQKVTMNCKSSQSLLNSNFQKNFLAWYQQKPGQSPKLLIYFASTRESSIPDRFIGSGSGTDFTLTISSVQAEDLADYFCQQHYSTPLTFGAGTKLELK
notes: Recombinant mouse Fab made in E. coli; also called 3D3 Fab
B8 was tested, and the OD450 (Fc-0447 1-60 (human)) was 1.33 OD450, the “EC50 (read off the curve)” value [6] was about 0.5 µg/mL and the OD450 [1] was 1.21 OD450.

B9: 3D3 hybrid antibody: humanized light chain expressed with the chimeric heavy chain (antibody, V domains shown)
VH: B8 VH
VL: B5 VL
notes: also called HC
B9 showed a Ka [3] of 3.24e+09 M⁻¹, a koff [3] of 0.00073 s⁻¹ and a kon [3] of 2.36e+06 M⁻¹ s⁻¹. For the same binder, the Kd [7] was 0.309 nM.

B10: G12 (Fab, V domains shown)
VH: B8 VH with L20V, V42A
VL: DIVMTQSPKFMSTSVGDRVSITCKASQDVGTAVAWYQQKPGQSPELLIYWTSTRHTGVPDRFSGSGSGTDFTLTISSVQAEDLADYFCQQHYSIPLTFGAGTKLELR
Binder B10 has an OD450 [1] of 1.38 OD450.

B11: 3D3 mouse-human chimeric IgG1 anti-KAAG1 monoclonal antibody (antibody, V domains shown)
VH: B8 VH
VL: B4 VL
notes: Mouse variable regions on human IgG1 and kappa constant regions, made in 293E cells; In the Biacore experiment two KD values are told for this composition, under the labels m3D3 and CC; also called chimeric 3D3; m3D3
With B11 the “EC50 (read off the curve)” value [8] was about 0.4 µg/mL, the Ka [3] was 4.5e+09 M⁻¹ and 2.71e+09 M⁻¹ and the Kd [3] was 0.368 nM. The koff [3] was 0.00065 s⁻¹ and 0.00073 s⁻¹, the kon [3] was 2.91e+06 M⁻¹ s⁻¹ and 1.98e+06 M⁻¹ s⁻¹ and the Kd [9] was 0.235 nM. It also gave a Kd [10] of 0.271 nM.

— patent publication US20120128661A1 (ALETHIA BIOTHERAPEUTICS, published 2012)
